Measurements from patent US20110104167A1, “Compositions and Methods for Diagnosing and Treating Insulin Resistance” (YEDA RESEARCH AND DEVELOPMENT CO. LTD., priority 2004, published 2011).
Residue numbers refer to the chain shown, from its start. Names and notes keep the numbering of the source.

Tests used:
CHO-T cells = assay: Phosphorylation (mobility shift) of truncated IRS-1 PH/PTB constructs in CHO-T cells; assay type: cell-based, Chinese Hamster; conditions: for effect of inhibitor pretreatment on the mobility shift of PH/PTB-L induced by chronic insulin: 30 min inhibitor, then 100 nM insulin 30 min
Protocol: FIGS. 7a-c show In vivo phosphorylation of PH/PTB-L in response to insulin. CHO-T cells were transiently transfected with pcDNA3-Myc-PH/PTB (1-1290 nt) or with an insert-free plasmid (control). Twenty-four hours post-transfection, the cells were deprived of serum for 16 h and were then treated with insulin for the indicated time periods. Cell extracts (100 μg) were resolved on 10% SDS-PAGE and immunoblotted with anti-pY or anti-Myc antibodies (FIG. 7a). In parallel, samples (100 μg, 40 μl) were incubated with 3 units (U) of calf intestine phosphatase (CIP) at 37° C. for 1 h. The samples were resolved on 10% SDS-PAGE and immunoblotted with anti-Myc antibodies (FIG. 7b). The results are of a representative of two experiments. FIG. 7c—CHO^PH/PTB-L cells were starved in serum-free F12 medium for 16 h. The cells were treated for 30 min with the indicated inhibitors prior to being treated with 100 nM insulin for 30 min. Cell extracts were prepared, samples were resolved on 10% SDS-PAGE and were immunoblotted with anti-Myc antibodies. Results are of a representative of three experiments.
FIGS. 8a-b show the effects of insulin on Serine phosphorylation of Myc-PH/PTB-L^7A CHO-T cells were transiently transfected with constructs encoding Myc-PH/PTB-L (1-1290 nt), either wild type (WT) or the 7A mutant (FIG. 8a). Alternatively, the cells were transfected or with the constructs encoding Myc-PH/PTB-L (1-1290 nt; 1-430 aa) or Myc-PH/PTB-S (1-1095 nt; 1-365 aa, FIG. 8b). Following 24 hours in culture, the cells were incubated in serum-free F12 medium for 16 ch prior to being treated with insulin for the indicated times. Cell extracts were resolved on 10% SDS-PAGE and immunoblotted with anti-Myc antibodies. Results are of a representative of three experiments.
FIGS. 9a-b show the effects of insulin and calyculin A on Ser phosphorylation of PH/PTB-L mutants. FIG. 9a—CHO-T cells were transiently transfected with constructs expressing either Myc-PH/PTB^WT or the following PH/PTB mutants: S336A, S407A, S408A, S407/8A and S3A (S336/407/408A). Following 24 hours the cells were deprived of serum for 16 h, and were treated with insulin for the indicated times. Cell extracts were resolved on 10% SDS-PAGE and immunoblotted with anti-Myc antibodies. The results are of a representative of two-three experiments. FIG. 9b—CHO-T cells were transiently transfected with pcDNA3-myc-PH/PTB^WT or pcDNA3-myc-PH/PTB^S408A. Following 24 hours the cells were starved for 16 h and were then treated either with 100 nM insulin for 30 min or with 25 nM calyculin A for 60 min. Cell extracts were resolved on 10% SDS-PAGE and were immunoblotted with anti-Myc antibodies. Results are of a representative of two experiments.
Plasmids construction—i. Myc-tagged-IRS-1 The cDNA, encoding for the mouse IRS-1 in the pCNA-3 expression plasmid (35) was digested with Hind III and BspE-1. This deleted a 9 by fragment from the 5′-IRS-1 cDNA that was replaced by a double stranded synthetic oligonucleotide encoding the Myc tag and the missing amino-acids of IRS-1 (bold) […] (SEQ ID NO. 9). ii. Myc-tagged truncated IRS-1 (aa 1-430, PH/PTB-L) Myc-tagged mouse IRS-1 cDNA (N-terminus, 1-1290 nt), encoding for the first 430 aa of IRS-1, was PCR-amplified with the following primers. 5′-CAGGATCCGCATATGGAACAAAAGCTC-3′ (sense) (SEQ ID NO. 10); 5′-GAGAATTCATCAGGGACTAGAACCATA-3′ (anti-sense) (SEQ ID NO. 11), using as a template the pcDNA3-Myc-IRS-1 plasmid. The PCR product was ligated into a pGEM-T. The insert was excised from pGEM-T with BamH I and EcoR I (italic), and then was ligated into pcDNA3 at the same restriction sites to generate pcDNA3-Myc-IRS-1^PH/PTB-L. iii. Myc-tagged truncated IRS-1 (aa 1-365, PH/PTB-S) Myc-tagged mouse IRS-1 cDNA (N-terminus, 1-1095 nt), encoding for the first 365 aa of IRS-1, was PCR-amplified with the following primers: 5′ […]-3′ (sense) (SEQ ID NO. 12); 5′ […] 3′ (anti sense) (SEQ ID NO. 13) using as a template the pcDNA3-Myc-IRS-1. […]

Fao cells = assay: Effect of inducers of insulin resistance on insulin-stimulated Tyr phosphorylation of IRS-1 in Fao cells; assay type: cell-based, rat
Protocol: FIGS. 5a-c show the effects of TPA and anisomycin on insulin-induced Tyr phosphorylation of IRS-1^7A in Fao cells. Fao cells were infected with Ad-Myc-IRS-1^WT or Ad-Myc-IRS-1^7A at 7×10^7 PFU/ml. Following 48 hours the cells were deprived of serum for 16 h, and were then treated for 60 min with 200 nM TPA (FIG. 5a); 50 ng/ml of anisomycin (FIG. 5b) or 1 μg/ml of anisomycin (FIG. 5c). This was followed by treatment with 100 nM insulin for 2 min (FIG. 5a) or for the indicated times (FIGS. 5b-c). Cell extracts were prepared, and samples (1 mg) were subjected to immunoprecipitation (IP) with anti-Myc antibodies (FIG. 5a). Immunocomplexes were resolved on 7.5 SDS-PAGE and were immunoblotted with the indicated antibodies. Alternatively, total cell extracts (FIGS. 5b-c) were resolved on 7.5% SDS-PAGE and immunoblotted with the indicated antibodies. Results of a representative of four experiments are presented. The results of two independent experiments done in duplicates were quantified (FIG. 5a, right panel).
FIGS. 6a-b show the dose dependent effect of Palmitic acid on Insulin-induced Tyr phosphorylation of IRS-1 mutants in Fao cells. Fao cells were infected with Ad-Myc-IRS-1^WT or Ad-Myc-IRS-1^7A at 7×10^7 PFU/ml. Following 24 hours the cells were deprived of serum for 12 h, and were then further incubated for 12 h with or without the indicated concentrations of palmitic acid in serum free medium prior to being stimulated with 100 nM insulin for the indicated times. Cell extracts (100 μg) were resolved on 7.5% SDS-PAGE and immunoblotted with anti-PY and anti-Myc antibodies. The results of two independent experiments done in duplicates were quantified.
FIGS. 11a-c show the effects of TPA and anisomycin on insulin-stimulated Tyr phosphorylation of IRS-1^WT, IRS-1^7A and IRS-1^408A. Fao cells were infected with Adeno-myc-IRS-1 wild type (WT); the 7A mutant; or the S408A mutant at a titer of 4-6×10^7 PFU/ml. Following 48 hours the cells were deprived of serum for 16 h, and were then treated for 60 min with 200 nM TPA (FIG. 11a), or 50 ng/ml anisomycin (FIG. 11b), followed by treatment with 100 nM insulin for the indicated times. Cell extracts were prepared, samples (1 mg) were subjected to immunoprecipitation (IP) with anti-Myc antibodies. Immunocomplexes were resolved on 7.5% SDS-PAGE and immunoblotted with anti-PY or anti IRS-1 antibodies.
Infection of Fao cells with adenovirus—Fao cells were grown in RPMI medium containing 10% FCS. At 70% confluence cells were infected with adenoviruses harboring the gene of interest at a titer of 7 10^7 PFU/ml. After incubation for 2 h hours at 37° C., the virus-containing medium was diluted 1:5 in fresh RPMI medium. After 24 h the medium was replaced with a fresh RPMI medium containing 10% FCS. […]

How did the “effect of inhibitor pretreatment on the mobility shift of PH/PTB-L induced by chronic insulin” value (CHO-T cells) turn out when COc1cccc(-c2cc(=O)c3ccccc3o2)c1N [PD98059] was run?
The value was “ineffective”.

How did the “inhibition of insulin-stimulated Tyr phosphorylation of Myc-IRS-1^WT by TPA pretreatment” value (Fao cells; 200 nM TPA 60 min, then 100 nM insulin 2 min) turn out when CCCCCCCCCCCCCC(=O)O[C@@H]1[C@@H](C)[C@@]2(O)[C@@H](C=C(CO)C[C@]3(O)C(=O)C(C)=C[C@@H]23)[C@@H]2C(C)(C)[C@]12OC(C)=O [TPA, phorbol 12-myristate 13-acetate] was run?
Its value is about 40%.

How did the “effect of inhibitor pretreatment on the mobility shift of PH/PTB-L induced by chronic insulin” value (CHO-T cells) turn out when C[S+]([O-])c1ccc(-c2nc(-c3ccncc3)c(-c3ccc(F)cc3)[nH]2)cc1 (stereo not drawn) [SB203580] was run?
The value was “ineffective”.

CCCCCCCCCCCCCCCC(=O)O [FFA, Palmitic acid] was tested. Which “reduction in insulin-stimulated Tyr phosphorylation of IRS-1^WT by FFA pre-treatment” value (Fao cells; FFA 0.5-0.75 mM) did it give?
The value was about 35%.

B1: PH/PTB-S: Myc-tagged truncated mouse IRS-1 (aa 1-365), lacks S407 and S408 (protein, UniProt P35569 1-365, looked up, fragment)
chain: MASPPDTDGFSDVRKVGYLRKPKSMHKRFFVLRAASEAGGPARLEYYENEKKWRHKSSAPKRSIPLESCFNINKRADSKNKHLVALYTRDEHFAIAADSEAEQDSWYQALLQLHNRAKAHHDGAGGGCGGSCSGSSGVGEAGEDLSYDTGPGPAFKEVWQVILKPKGLGQTKNLIGIYRLCLTSKTISFVKLNSEAAAVVLQLMNIRRCGHSENFFFIEVGRSAVTGPGEFWMQVDDSVVAQNMHETILEAMRAMSDEFRPRSKSQSSSSCSNPISVPLRRHHLNNPPPSQVGLTRRSRTESITATSPASMVGGKPGSFRVRASSDGEGTMSRPASVDGSPVSPSTNRTHAHRHRGSSRLHPPLN
modifications: Myc tag
notes: Myc-tagged truncated mouse IRS-1 (aa 1-365), lacks S407 and S408
How did the “mobility shift (Ser phosphorylation) following prolonged insulin treatment” value (CHO-T cells; CHO-T cells, prolonged insulin) turn out when B1 was run?
Its value is “no decrease in its mobility”.

B2: PH/PTB-L^S336A: PH/PTB-L with Ser336 mutated to Ala (protein, UniProt P35569 1-430, looked up, variant S336A)
chain: MASPPDTDGFSDVRKVGYLRKPKSMHKRFFVLRAASEAGGPARLEYYENEKKWRHKSSAPKRSIPLESCFNINKRADSKNKHLVALYTRDEHFAIAADSEAEQDSWYQALLQLHNRAKAHHDGAGGGCGGSCSGSSGVGEAGEDLSYDTGPGPAFKEVWQVILKPKGLGQTKNLIGIYRLCLTSKTISFVKLNSEAAAVVLQLMNIRRCGHSENFFFIEVGRSAVTGPGEFWMQVDDSVVAQNMHETILEAMRAMSDEFRPRSKSQSSSSCSNPISVPLRRHHLNNPPPSQVGLTRRSRTESITATSPASMVGGKPGSFRVRASSDGEGTMSRPAAVDGSPVSPSTNRTHAHRHRGSSRLHPPLNHSRSIPMPSSRCSPSATSPVSLSSSSTSGHGSTSDCLFPRRSSASVSGSPSDGGFISSDEYGSSP
modifications: Myc tag
notes: PH/PTB-L with Ser336 mutated to Ala
For B2, which “mobility shift following 30 min insulin treatment” value (CHO-T cells; CHO-T cells) is on record?
Its value is “identical mobility-shifts as PH/PTB-L^WT”.

B3: PH/PTB-L^S407A: PH/PTB-L with Ser407 mutated to Ala (protein, UniProt P35569 1-430, looked up, variant S407A)
chain: B2 chain with A336S, S407A
modifications: Myc tag
notes: PH/PTB-L with Ser407 mutated to Ala
B3 was tested. Which “mobility shift following 30 min insulin treatment” value (CHO-T cells; CHO-T cells) did it give?
The value was “identical mobility-shifts as PH/PTB-L^WT”.

B4: PH/PTB-L^S408A: PH/PTB-L with Ser408 mutated to Ala (protein, UniProt P35569 1-430, looked up, variant S408A)
chain: B2 chain with A336S, S408A
modifications: Myc tag
notes: PH/PTB-L with Ser408 mutated to Ala
With B4 as the molecule, how does the “mobility shift following 30 min insulin treatment” value (CHO-T cells; CHO-T cells) read?
The value was “abolished the mobility shift”.

B5: PH/PTB-L^407/S408A: PH/PTB-L with Ser407 and Ser408 mutated to Ala (protein, UniProt P35569 1-430, looked up, variant S407A S408A)
chain: B2 chain with A336S, S407A, S408A
modifications: Myc tag
notes: PH/PTB-L with Ser407 and Ser408 mutated to Ala
For B5, which “mobility shift following 30 min insulin treatment” value (CHO-T cells; CHO-T cells) is on record?
Its value is “abolished the mobility shift”.
